Laboratory results taken from patent US20210388087A1 (Chugai, published 2021).

Target: T1, Human CD137 ECD (human)
T1 construct: entry includes C-terminal His-tag and biotin acceptor peptide; also called human CD137 extracellular domain; 4-1BB
Assay: Biacore SPR, vs parent H183/L072

T1 sequence (chain, as listed by the source limits assumed): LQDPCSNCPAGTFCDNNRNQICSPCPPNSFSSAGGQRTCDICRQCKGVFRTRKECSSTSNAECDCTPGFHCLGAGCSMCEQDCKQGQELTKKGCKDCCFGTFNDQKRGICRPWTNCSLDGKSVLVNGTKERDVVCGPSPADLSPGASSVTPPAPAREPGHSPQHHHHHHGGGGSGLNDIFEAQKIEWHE

Binder | fold change of affinity [fold]
H183/L072 VL V27cG (antibody, name in Kabat numbering, V domains shown, Dual-Ig) VH: QVQLVESGGGLVQPGRSLRLSCAASGFTFSNAWMHWVRQAPGKGLEWVAQIKDKGNAYAAYYAPSVKGRFTISRDDSKNSIYLQMNSLKTEDTAVYYCHYVHYASASTVLPAFGVDAWGQGTTVTVSS VL: DIVMTQSPLSLPVTPGEPASISCQASQELGHMNRNTYLHWYQQKPGQAPRLLIYKVSNRFPGVPDRFSGSGSGTDFTLKISRVEAEDVGVYYCAQGTSVPFTFGQGTKLEIK | 0.4
H183/L072 VL V27cR (antibody, name in Kabat numbering, V domains shown, Dual-Ig) VH: QVQLVESGGGLVQPGRSLRLSCAASGFTFSNAWMHWVRQAPGKGLEWVAQIKDKGNAYAAYYAPSVKGRFTISRDDSKNSIYLQMNSLKTEDTAVYYCHYVHYASASTVLPAFGVDAWGQGTTVTVSS VL: DIVMTQSPLSLPVTPGEPASISCQASQELRHMNRNTYLHWYQQKPGQAPRLLIYKVSNRFPGVPDRFSGSGSGTDFTLKISRVEAEDVGVYYCAQGTSVPFTFGQGTKLEIK | 0.9
H183/L072 VL V27cS (antibody, name in Kabat numbering, V domains shown, Dual-Ig) VH: QVQLVESGGGLVQPGRSLRLSCAASGFTFSNAWMHWVRQAPGKGLEWVAQIKDKGNAYAAYYAPSVKGRFTISRDDSKNSIYLQMNSLKTEDTAVYYCHYVHYASASTVLPAFGVDAWGQGTTVTVSS VL: DIVMTQSPLSLPVTPGEPASISCQASQELSHMNRNTYLHWYQQKPGQAPRLLIYKVSNRFPGVPDRFSGSGSGTDFTLKISRVEAEDVGVYYCAQGTSVPFTFGQGTKLEIK | 0.3
H183/L072 VL V27cM (antibody, name in Kabat numbering, V domains shown, Dual-Ig) VH: QVQLVESGGGLVQPGRSLRLSCAASGFTFSNAWMHWVRQAPGKGLEWVAQIKDKGNAYAAYYAPSVKGRFTISRDDSKNSIYLQMNSLKTEDTAVYYCHYVHYASASTVLPAFGVDAWGQGTTVTVSS VL: DIVMTQSPLSLPVTPGEPASISCQASQELMHMNRNTYLHWYQQKPGQAPRLLIYKVSNRFPGVPDRFSGSGSGTDFTLKISRVEAEDVGVYYCAQGTSVPFTFGQGTKLEIK | 0.9
H183/L072 VL V27cQ (antibody, name in Kabat numbering, V domains shown, Dual-Ig) VH: QVQLVESGGGLVQPGRSLRLSCAASGFTFSNAWMHWVRQAPGKGLEWVAQIKDKGNAYAAYYAPSVKGRFTISRDDSKNSIYLQMNSLKTEDTAVYYCHYVHYASASTVLPAFGVDAWGQGTTVTVSS VL: DIVMTQSPLSLPVTPGEPASISCQASQELQHMNRNTYLHWYQQKPGQAPRLLIYKVSNRFPGVPDRFSGSGSGTDFTLKISRVEAEDVGVYYCAQGTSVPFTFGQGTKLEIK | 0.8
H183/L072 VL V27cI (antibody, name in Kabat numbering, V domains shown, Dual-Ig) VH: QVQLVESGGGLVQPGRSLRLSCAASGFTFSNAWMHWVRQAPGKGLEWVAQIKDKGNAYAAYYAPSVKGRFTISRDDSKNSIYLQMNSLKTEDTAVYYCHYVHYASASTVLPAFGVDAWGQGTTVTVSS VL: DIVMTQSPLSLPVTPGEPASISCQASQELIHMNRNTYLHWYQQKPGQAPRLLIYKVSNRFPGVPDRFSGSGSGTDFTLKISRVEAEDVGVYYCAQGTSVPFTFGQGTKLEIK | 1
H183/L072 VL V27cL (antibody, name in Kabat numbering, V domains shown, Dual-Ig) VH: QVQLVESGGGLVQPGRSLRLSCAASGFTFSNAWMHWVRQAPGKGLEWVAQIKDKGNAYAAYYAPSVKGRFTISRDDSKNSIYLQMNSLKTEDTAVYYCHYVHYASASTVLPAFGVDAWGQGTTVTVSS VL: DIVMTQSPLSLPVTPGEPASISCQASQELLHMNRNTYLHWYQQKPGQAPRLLIYKVSNRFPGVPDRFSGSGSGTDFTLKISRVEAEDVGVYYCAQGTSVPFTFGQGTKLEIK | 0.8
H183/L072 VL V27cH (antibody, name in Kabat numbering, V domains shown, Dual-Ig) VH: QVQLVESGGGLVQPGRSLRLSCAASGFTFSNAWMHWVRQAPGKGLEWVAQIKDKGNAYAAYYAPSVKGRFTISRDDSKNSIYLQMNSLKTEDTAVYYCHYVHYASASTVLPAFGVDAWGQGTTVTVSS VL: DIVMTQSPLSLPVTPGEPASISCQASQELHHMNRNTYLHWYQQKPGQAPRLLIYKVSNRFPGVPDRFSGSGSGTDFTLKISRVEAEDVGVYYCAQGTSVPFTFGQGTKLEIK | 0.6
H183/L072 VL V27cN (antibody, name in Kabat numbering, V domains shown, Dual-Ig) VH: QVQLVESGGGLVQPGRSLRLSCAASGFTFSNAWMHWVRQAPGKGLEWVAQIKDKGNAYAAYYAPSVKGRFTISRDDSKNSIYLQMNSLKTEDTAVYYCHYVHYASASTVLPAFGVDAWGQGTTVTVSS VL: DIVMTQSPLSLPVTPGEPASISCQASQELNHMNRNTYLHWYQQKPGQAPRLLIYKVSNRFPGVPDRFSGSGSGTDFTLKISRVEAEDVGVYYCAQGTSVPFTFGQGTKLEIK | 0.5
H183/L072 VL V27cP (antibody, name in Kabat numbering, V domains shown, Dual-Ig) VH: QVQLVESGGGLVQPGRSLRLSCAASGFTFSNAWMHWVRQAPGKGLEWVAQIKDKGNAYAAYYAPSVKGRFTISRDDSKNSIYLQMNSLKTEDTAVYYCHYVHYASASTVLPAFGVDAWGQGTTVTVSS VL: DIVMTQSPLSLPVTPGEPASISCQASQELPHMNRNTYLHWYQQKPGQAPRLLIYKVSNRFPGVPDRFSGSGSGTDFTLKISRVEAEDVGVYYCAQGTSVPFTFGQGTKLEIK | 0.5
H183/L072 VL V27cK (antibody, name in Kabat numbering, V domains shown, Dual-Ig) VH: QVQLVESGGGLVQPGRSLRLSCAASGFTFSNAWMHWVRQAPGKGLEWVAQIKDKGNAYAAYYAPSVKGRFTISRDDSKNSIYLQMNSLKTEDTAVYYCHYVHYASASTVLPAFGVDAWGQGTTVTVSS VL: DIVMTQSPLSLPVTPGEPASISCQASQELKHMNRNTYLHWYQQKPGQAPRLLIYKVSNRFPGVPDRFSGSGSGTDFTLKISRVEAEDVGVYYCAQGTSVPFTFGQGTKLEIK | 0.9

Second part, the binder after the results:

fold change of affinity [fold] | Binder
0.6 | H183/L072 VL V51E (antibody, name in Kabat numbering, V domains shown, Dual-Ig) VH: QVQLVESGGGLVQPGRSLRLSCAASGFTFSNAWMHWVRQAPGKGLEWVAQIKDKGNAYAAYYAPSVKGRFTISRDDSKNSIYLQMNSLKTEDTAVYYCHYVHYASASTVLPAFGVDAWGQGTTVTVSS VL: DIVMTQSPLSLPVTPGEPASISCQASQELVHMNRNTYLHWYQQKPGQAPRLLIYKESNRFPGVPDRFSGSGSGTDFTLKISRVEAEDVGVYYCAQGTSVPFTFGQGTKLEIK
0.6 | H183/L072 VL V51I (antibody, name in Kabat numbering, V domains shown, Dual-Ig) VH: QVQLVESGGGLVQPGRSLRLSCAASGFTFSNAWMHWVRQAPGKGLEWVAQIKDKGNAYAAYYAPSVKGRFTISRDDSKNSIYLQMNSLKTEDTAVYYCHYVHYASASTVLPAFGVDAWGQGTTVTVSS VL: DIVMTQSPLSLPVTPGEPASISCQASQELVHMNRNTYLHWYQQKPGQAPRLLIYKISNRFPGVPDRFSGSGSGTDFTLKISRVEAEDVGVYYCAQGTSVPFTFGQGTKLEIK
0.2 | H183/L072 VL V51F (antibody, name in Kabat numbering, V domains shown, Dual-Ig) VH: QVQLVESGGGLVQPGRSLRLSCAASGFTFSNAWMHWVRQAPGKGLEWVAQIKDKGNAYAAYYAPSVKGRFTISRDDSKNSIYLQMNSLKTEDTAVYYCHYVHYASASTVLPAFGVDAWGQGTTVTVSS VL: DIVMTQSPLSLPVTPGEPASISCQASQELVHMNRNTYLHWYQQKPGQAPRLLIYKFSNRFPGVPDRFSGSGSGTDFTLKISRVEAEDVGVYYCAQGTSVPFTFGQGTKLEIK
0.8 | H183/L072 VL V51A (antibody, name in Kabat numbering, V domains shown, Dual-Ig) VH: QVQLVESGGGLVQPGRSLRLSCAASGFTFSNAWMHWVRQAPGKGLEWVAQIKDKGNAYAAYYAPSVKGRFTISRDDSKNSIYLQMNSLKTEDTAVYYCHYVHYASASTVLPAFGVDAWGQGTTVTVSS VL: DIVMTQSPLSLPVTPGEPASISCQASQELVHMNRNTYLHWYQQKPGQAPRLLIYKASNRFPGVPDRFSGSGSGTDFTLKISRVEAEDVGVYYCAQGTSVPFTFGQGTKLEIK
0.7 | H183/L072 VL V27cY (antibody, name in Kabat numbering, V domains shown, Dual-Ig) VH: QVQLVESGGGLVQPGRSLRLSCAASGFTFSNAWMHWVRQAPGKGLEWVAQIKDKGNAYAAYYAPSVKGRFTISRDDSKNSIYLQMNSLKTEDTAVYYCHYVHYASASTVLPAFGVDAWGQGTTVTVSS VL: DIVMTQSPLSLPVTPGEPASISCQASQELYHMNRNTYLHWYQQKPGQAPRLLIYKVSNRFPGVPDRFSGSGSGTDFTLKISRVEAEDVGVYYCAQGTSVPFTFGQGTKLEIK
0.6 | H183/L072 VL V51H (antibody, name in Kabat numbering, V domains shown, Dual-Ig) VH: QVQLVESGGGLVQPGRSLRLSCAASGFTFSNAWMHWVRQAPGKGLEWVAQIKDKGNAYAAYYAPSVKGRFTISRDDSKNSIYLQMNSLKTEDTAVYYCHYVHYASASTVLPAFGVDAWGQGTTVTVSS VL: DIVMTQSPLSLPVTPGEPASISCQASQELVHMNRNTYLHWYQQKPGQAPRLLIYKHSNRFPGVPDRFSGSGSGTDFTLKISRVEAEDVGVYYCAQGTSVPFTFGQGTKLEIK
0 | H183/L072 VL V51D (antibody, name in Kabat numbering, V domains shown, Dual-Ig) VH: QVQLVESGGGLVQPGRSLRLSCAASGFTFSNAWMHWVRQAPGKGLEWVAQIKDKGNAYAAYYAPSVKGRFTISRDDSKNSIYLQMNSLKTEDTAVYYCHYVHYASASTVLPAFGVDAWGQGTTVTVSS VL: DIVMTQSPLSLPVTPGEPASISCQASQELVHMNRNTYLHWYQQKPGQAPRLLIYKDSNRFPGVPDRFSGSGSGTDFTLKISRVEAEDVGVYYCAQGTSVPFTFGQGTKLEIK
0.7 | H183/L072 VL V27cW (antibody, name in Kabat numbering, V domains shown, Dual-Ig) VH: QVQLVESGGGLVQPGRSLRLSCAASGFTFSNAWMHWVRQAPGKGLEWVAQIKDKGNAYAAYYAPSVKGRFTISRDDSKNSIYLQMNSLKTEDTAVYYCHYVHYASASTVLPAFGVDAWGQGTTVTVSS VL: DIVMTQSPLSLPVTPGEPASISCQASQELWHMNRNTYLHWYQQKPGQAPRLLIYKVSNRFPGVPDRFSGSGSGTDFTLKISRVEAEDVGVYYCAQGTSVPFTFGQGTKLEIK
0.4 | H183/L072 VL V51G (antibody, name in Kabat numbering, V domains shown, Dual-Ig) VH: QVQLVESGGGLVQPGRSLRLSCAASGFTFSNAWMHWVRQAPGKGLEWVAQIKDKGNAYAAYYAPSVKGRFTISRDDSKNSIYLQMNSLKTEDTAVYYCHYVHYASASTVLPAFGVDAWGQGTTVTVSS VL: DIVMTQSPLSLPVTPGEPASISCQASQELVHMNRNTYLHWYQQKPGQAPRLLIYKGSNRFPGVPDRFSGSGSGTDFTLKISRVEAEDVGVYYCAQGTSVPFTFGQGTKLEIK
0.7 | H183/L072 VL V27cT (antibody, name in Kabat numbering, V domains shown, Dual-Ig) VH: QVQLVESGGGLVQPGRSLRLSCAASGFTFSNAWMHWVRQAPGKGLEWVAQIKDKGNAYAAYYAPSVKGRFTISRDDSKNSIYLQMNSLKTEDTAVYYCHYVHYASASTVLPAFGVDAWGQGTTVTVSS VL: DIVMTQSPLSLPVTPGEPASISCQASQELTHMNRNTYLHWYQQKPGQAPRLLIYKVSNRFPGVPDRFSGSGSGTDFTLKISRVEAEDVGVYYCAQGTSVPFTFGQGTKLEIK
